Assay results as given in the supplement of paper PMC7125110.
± gives the standard error. For some of these results: Fewer inactive variants are shown than the library holds.

B1: glmS ribozyme (parent)
chain: AUAAAAGCGCCAGAACUACAGAAAUGUAGUUGACGAGGAGGAGGUUUAUCGAAUUUUCGGCGGAUGCCUCCAAA

Tests used:
Conditions in all cases: with glucosamine-6-phosphate
glucosamine-6-phosphate [1] = variants of: B1; test: kcat; higher = faster cleavage; RNA array
Outline: (§1)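 E. coli RNA polymerase transcribed barcoded ribozyme variants in situ on sequenced MiSeq chips, which were tracked via a hybridised Cy3 probe at 37 °C. Tiles were imaged over ~14 h after glucosamine-6-phosphate (40 μM to 10 mM) in HEPES/KCl/Mg(OAc)2 buffer was flowed in. Normalised per-tile medians were fit to one- or two-exponential decays for kobs, and kcat and KM came from weighted Michaelis–Menten fits.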

glucosamine-6-phosphate [2] = variants of: B1; test: KM; higher = weaker cofactor use; RNA array
Outline: as §1

glucosamine-6-phosphate [3] = variants of: B1; test: self-cleavage kobs at 160 uM GlcN6P; higher = faster cleavage; RNA array
Outline: as §1

glucosamine-6-phosphate [4] = variants of: B1; test: self-cleavage kobs at 640 uM GlcN6P; higher = faster cleavage; RNA array
Outline: as §1

glucosamine-6-phosphate [5] = variants of: B1; test: self-cleavage kobs at 2500 uM GlcN6P; higher = faster cleavage; RNA array
Outline: as §1

glucosamine-6-phosphate [6] = variants of: B1; test: self-cleavage kobs at 10000 uM GlcN6P; higher = faster cleavage; RNA array
Outline: as §1

glucosamine-6-phosphate [7] = variants of: B1; test: self-cleavage kobs at 40 uM GlcN6P; higher = faster cleavage; RNA array
Outline: as §1

AUAAAAGCGCCAGCACUACAGAAAUGUAGUUGACGAGGAGGAGGUUUAUCGAAUUUUCGGCGGAUGCCUACAAA
kcat (glucosamine-6-phosphate [1]): 0.000106 ± 1.1e-05 s⁻¹
KM (glucosamine-6-phosphate [2]): 413 ± 170 µM
self-cleavage kobs at 160 uM GlcN6P (glucosamine-6-phosphate [3]): 4.49e-05 ± 9.3e-06 s⁻¹
self-cleavage kobs at 640 uM GlcN6P (glucosamine-6-phosphate [4]): 5.59e-05 ± 6.8e-06 s⁻¹
self-cleavage kobs at 2500 uM GlcN6P (glucosamine-6-phosphate [5]): 9.55e-05 ± 8e-06 s⁻¹
self-cleavage kobs at 10000 uM GlcN6P (glucosamine-6-phosphate [6]): 0.000102 ± 9.4e-06 s⁻¹

AUAAAAGCGCCAGAACUACAGAAAUGUAGUUGACGAGGAGGAGGUUUAUCGAAUUUUCGGAGGAUUCCUCCAAA
kcat (glucosamine-6-phosphate [1]): < 1e-05 s⁻¹

AUAAAAGCGCCAGAACUACAGAAAUGUAGUUGACGAGGAGGAGGUUUGUCGAAUUUUCGGCGGAUGCCCCCAAA
kcat (glucosamine-6-phosphate [1]): 9.33e-05 ± 2.9e-05 s⁻¹
self-cleavage kobs at 2500 uM GlcN6P (glucosamine-6-phosphate [5]): 9.27e-05 ± 3.5e-05 s⁻¹
self-cleavage kobs at 10000 uM GlcN6P (glucosamine-6-phosphate [6]): 7.34e-05 ± 2.5e-05 s⁻¹

AUAAAAGCGCCAGAACUACAGAAAUGUAGUUGACGAGGAAGAGGUUUAUCGAUUUUUCGGCGGAUGCCUCCAAA
kcat (glucosamine-6-phosphate [1]): 0.00621 ± 0.0028 s⁻¹
self-cleavage kobs at 40 uM GlcN6P (glucosamine-6-phosphate [7]): 0.00015 ± 1.5e-05 s⁻¹
self-cleavage kobs at 160 uM GlcN6P (glucosamine-6-phosphate [3]): 0.000422 ± 0.00011 s⁻¹
self-cleavage kobs at 640 uM GlcN6P (glucosamine-6-phosphate [4]): 0.00107 ± 0.00016 s⁻¹
self-cleavage kobs at 2500 uM GlcN6P (glucosamine-6-phosphate [5]): 0.00268 ± 0.00057 s⁻¹
self-cleavage kobs at 10000 uM GlcN6P (glucosamine-6-phosphate [6]): 0.00711 ± 0.001 s⁻¹

AUAAAAGCGCCAGAACUACAGAAAUGUAGUUGACGAGGAGGAAGUUUAUCGAAGUUUCGGCGGAUGCCUCCAAA
kcat (glucosamine-6-phosphate [1]): 0.000123 ± 6e-06 s⁻¹
KM (glucosamine-6-phosphate [2]): 2490 ± 310 µM
self-cleavage kobs at 2500 uM GlcN6P (glucosamine-6-phosphate [5]): 6.39e-05 ± 1.5e-05 s⁻¹
self-cleavage kobs at 10000 uM GlcN6P (glucosamine-6-phosphate [6]): 9.76e-05 ± 1.9e-05 s⁻¹

AUAAAAGCGCCAGAACUACAGAAAUGUAGUUGACGAGGAGGAGGUUUAUCGAAUUUUCGGCCGAUGCCUUCAAA
kcat (glucosamine-6-phosphate [1]): < 1e-05 s⁻¹
self-cleavage kobs at 40 uM GlcN6P (glucosamine-6-phosphate [7]): < 1e-05 s⁻¹
self-cleavage kobs at 160 uM GlcN6P (glucosamine-6-phosphate [3]): < 1e-05 s⁻¹
self-cleavage kobs at 640 uM GlcN6P (glucosamine-6-phosphate [4]): < 1e-05 s⁻¹
self-cleavage kobs at 10000 uM GlcN6P (glucosamine-6-phosphate [6]): < 1e-05 s⁻¹

AUAAAAGCGCCAGAACUACAGAAAUGUAGUUGUCGAGGAGUAGGUUUAUCGAAUUUUCGGCGGAUGCCUCCAAA
kcat (glucosamine-6-phosphate [1]): 2.33e-05 ± 1.9e-06 s⁻¹
self-cleavage kobs at 40 uM GlcN6P (glucosamine-6-phosphate [7]): < 1e-05 s⁻¹
self-cleavage kobs at 160 uM GlcN6P (glucosamine-6-phosphate [3]): < 1e-05 s⁻¹
self-cleavage kobs at 2500 uM GlcN6P (glucosamine-6-phosphate [5]): 2.26e-05 ± 8e-06 s⁻¹
self-cleavage kobs at 10000 uM GlcN6P (glucosamine-6-phosphate [6]): 2.14e-05 ± 6.8e-06 s⁻¹

AUAAAACCGCCAGAACUACAGAAAUGUAGUUGACGAGGAGGAGGUUUAUCGAGUUUUCGGCGGAUGCCUCCAAA
kcat (glucosamine-6-phosphate [1]): < 1e-05 s⁻¹
self-cleavage kobs at 10000 uM GlcN6P (glucosamine-6-phosphate [6]): < 1e-05 s⁻¹

AUAAAAGCGCCAGAACUACAGAAAUGUAGUUGACGAGGAGAAGGUUUAGCGAAUUUUCGGCGGAUGCCUCCAAA
kcat (glucosamine-6-phosphate [1]): 3.79e-05 ± 6.4e-06 s⁻¹
self-cleavage kobs at 2500 uM GlcN6P (glucosamine-6-phosphate [5]): 3.9e-05 ± 1e-05 s⁻¹
self-cleavage kobs at 10000 uM GlcN6P (glucosamine-6-phosphate [6]): 3.34e-05 ± 8.6e-06 s⁻¹

AUAAAAGCGCCAGAACUAAAGAAAUGUAGUUGACGAGGAGGAGGUUUAUCGAAUUUUCUGCGGAUGCCUCCAAA
kcat (glucosamine-6-phosphate [1]): 0.000115 ± 2.9e-05 s⁻¹
self-cleavage kobs at 10000 uM GlcN6P (glucosamine-6-phosphate [6]): 3.11e-05 ± 1.5e-05 s⁻¹
